Key:
[1] = tested on: human brain endothelial cells (HBEC); assay: Capillary-like tube (CLT) formation in Matrigel; assay type: cell-based; settings: for effect on IGF-1-induced CLT formation: IGF-1 150 ng/ml; for effect on IGF-1-induced CLT formation / effect on P1GF-induced CLT formation / effect on VEGF165-induced CLT formation / effect on bFGF-induced CLT formation: protein 500 ng/ml; for effect on P1GF-induced CLT formation: P1GF 100 ng/ml; for effect on VEGF165-induced CLT formation: VEGF165 20 ng/ml; for effect on bFGF-induced CLT formation: bFGF 20 ng/ml
Text: Angiogenesis is the formation of new blood vessels from pre-existing capillaries. There are different methods to evaluate angiogenesis in vitro and in vivo. The method used in our studies consists in seeding human brain microvascular endothelial cells on Matrigel, which is an active matrix material resembling the mammalian cellular basement membrane. Endothelial cells seeded on Matrigel behave as they do in vivo and when submitted to an angiogenic stimuli reorganize forming a complex network of capillary-like tubes. The total length of the capillary-like tube network as well as the number of branching point (nodes) formed by the endothelial cells directly correlate with the potency of the angiogenic stimuli.
In vitro angiogenesis was assessed by endothelial tube formation in growth factor reduced Matrigel™ (BD Bioscience, Bedford, Mass.). 24-well plates were coated with 300 μl of unpolymerized Matrigel™ (5-7 mg prot/ml) and allowed to polymerize for 90 min at 37° C. […] In a set of experiments, 500 ng/ml of either full length recombinant IGFBP-4, NBP-4 or CBP-4 were co-applied with growth factors (IGF-I, VEGF165, P1GF, or bFGF) or U87MG CM. […] CLT formation was analyzed after 24 h using an Olympus 1×50 microscope. Phase contrast images were captured with a digital video camera (Olympus U-CMT) and analyzed using Northern Eclipse v.5.0 software. Microphotographs were thresholded, converted to binary images and skeletonized. The total length of the CLT networks and the number of nodes (branching points) formed by HBEC in the center of the well (˜80% of the total surface) were quantified. […]

U87MG cells [2] = assay: ELISA of secreted proteins in U87MG conditioned media; assay type: cell-based, human; settings: 500 μM dB-cAMP, 6 days
[3] = tested on: plasminogen activator activity in U87MG cells; assay: Plasminogen activator activity assay (S-2251); assay type: cell-based, human; settings: 500 μM dB-cAMP, 3-day treatment
Method: Plasminogen activator activity (PAA) was determined by a spectrophotometric method using the chromogenic substrate S-2251 (D-Val-Leu-Lys p-nitroanilide dihydrochloride). […] Cells were washed 3 times and incubated for 2 h at 37° C. in phenol red-free D-MEM containing 2 c.u./ml plasminogen (DiaPharma Group, Ohio, USA) and 2 mM chromogenic substrate S-2251 (DiaPharma Group, Ohio, USA). The cleavage of 4-nitroaniline from the substrate by plasminogen activator was measured photometrically at 405 nm. Protein levels were measured with BioRad protein assay and PPA was expressed as a function of protein content in cell extracts.

U87MG cells [4] = assay: Real-time PCR (Q-PCR) gene expression; assay type: cell-based, human; settings: 500 μM dB-cAMP
Method: Total RNA was isolated from cells with TRIzol Reagent (Gibco BRL). The RNA (1 μg) was primed with oligo (dT)12-18 primers (0.5 μg/μg RNA, Gibco BRL) and reverse transcribed with 1-3 U of avian myeloblastosis virus reverse transcriptase (AMV RT, Promega) in a final volume of 20 μl. Completed RT reactions were diluted to 40 μl with water. Control reactions without the enzyme were run in parallel to monitor for potential genomic contamination. Primers were designed (Primer Express Software v2.0) for genes of interest (Table III) using Primer Express 2.0 program. Real-Time PCR was carried out with SYBR Green PCR Core Reagents Kit (Applied Biosystems, CA, USA) using the GeneAmp® 5700 Sequence Detection System (Perkin Elmer Applied Biosystems). A cDNA pool serially diluted from 1:10 to 1:1000 was used to generate standard curves. Reactions were performed in 20 μl reaction mixture containing 1×SYBR PCR buffer (Perkin-Elmer), 200 μM of each dATP, dCTP, dGTP and 400 μM dUTP, 0.025 U/μl AmpliTaq Gold, 0.01 U/μl AmpEraseUNG (uracil-N-glycosylase), 3 mM MgCl2, 120 nM of each primer and 2 μl of cDNA. […] Fluorescence was detected at the end of every 60° C. phase. […]
The PCR cycle number at which fluorescence reaches a threshold value of 10 times the standard deviation of baseline emission was used for quantitative measurements. […]

U87MG cells [5] = assay: Anchorage-independent growth in semi-solid agar (U87MG); assay type: cell-based, human; settings: for reduction of U87MG colony formation / tumor growth in soft agar: 500 ng/ml protein
Method: D-MEM containing 10% FBS was warmed to 48° C. and diluted with Bacto-Agar to make a 0.6% (w/v) agar solution; 3 ml of agar solution was poured into 60 mm plates. […] Number and size of colonies formed were analyzed under the microscope (Olympus 1×50). Phase contrast images (6 fields/dish) were captured using a digital video camera (Olympus U-CMT) and analyzed with Northern Eclipse v.5.0 software. Each experiment was done in triplicate. Capillary-like tube (CLT) formation

PAI-1 in U87MG cells = assay: Western blot of PAI-1; assay type: cell-based, human; settings: 500 μM dB-cAMP, 6 days
Method: Cellular proteins were extracted using CHAPS buffer. Proteins were separated on a 10% SDS-PAGE gel and transferred onto nitrocellulose membranes. Membranes were blocked with 5% instant skim dry milk in PBST for 1 hour, then washed twice for 5 min with PBST. Blots were probed with 1:500 dilution of the PAI-1 primary antibody (Biogenesis Ltd, England, UK) in 2% skim milk in PBST supplemented with 10 mM sodium azide overnight at 4° C. After washing in PBST, membranes were incubated with HRP-labeled anti-mouse IgG secondary antibody (NEN Life Science Products, USA; 1:5000) for 1 h at room temperature. Bands were visualized using Western Blot Chemiluminescence Reagent Plus kit (NEN™ Life Science Products) and the Fluor-S™ multiImager (BioRad Lab., Hercules, Calif., USA).

U87MG cells [6] = assay: U87MG proliferation, CyQUANT Cell Proliferation Assay; assay type: cell-based, human; settings: for decrease in proliferation: 500 μM dB-cAMP
Method: Proliferation rates of U87MG cells were determined using CyQUANT® Cell Proliferation Assay Kit (Molecular Probes, Inc., Eugene, Oreg.). […] Cells were fed every two days and harvested at days 2, 3, 5 and 6 by washing with HBSS, blotting microplates dry and storing at −80° C. until analysis. For cell density determination, plates were thawed at room temperature, 200 μl of CyQUANT GR dye/lysis buffer was added to each well and plates were incubated in the dark for 5 min. Sample fluorescence was measured (485 nm ex/530 nm em) in a cytofluorimeter plate reader (Bio-Tek FL600) and fluorescence values converted into cell numbers from cell reference standard curves.

Hela cells = assay: Anchorage-independent growth in semi-solid agar (Hela); assay type: cell-based, human; settings: 500 ng/ml IGFBP-4, 4 weeks
Method: D-MEM containing 10% FBS was warmed to 48° C. and diluted with Bacto-Agar to make a 0.6% (w/v) agar solution; 3 ml of agar solution was poured into 60 mm plates. […] The solidified cell layer was covered with 500 μl D-MEM±treatment which was replaced every three days over a 20-25 day period. Number and size of colonies formed were analyzed under the microscope (Olympus 1×50). Phase contrast images (6 fields/dish) were captured using a digital video camera (Olympus U-CMT) and analyzed with Northern Eclipse v.5.0 software. Each experiment was done in triplicate. Capillary-like tube (CLT) formation

[7] = 500 ng/ml protein co-applied with U87MG CM

In the case of `CCCC(=O)Nc1ncnc2c1ncn2[C@@H]1O[C@@H]2COP(=O)(O)O[C@H]2[C@H]1OC(=O)CCC` [dB-cAMP, dibutyryl cyclic AMP], the “effect on U87MG CM-induced CLT formation” value ([1]; 500 μM dB-cAMP added directly to U87MG CM) is reported as “did not inhibit CLT formation”, the “CLT formation by HBEC exposed to CM of dB-cAMP-treated U87MG” value ([1]; U87MG treated with 500 μM dB-cAMP, 6 days) is reported as “blocks the angiogenic response” and the “VEGF-A levels in CM, increase vs untreated” value (U87MG cells [2]) is reported as 20%. The “levels of P1GF, IGF-1 and bFGF in CM” value (U87MG cells [2]) was “below the detection limit”, the “VEGF-A level in CM of treated cells” value (U87MG cells [2]; untreated ~60) was roughly 80 ng/mL and the “reduction in plasminogen activator activity (PAA)” value [3] was 30%. For the same molecule, the “IGF-I and IGF-II mRNA change, Q-PCR” value (U87MG cells [4]) was “no changes were detected”, the “IGFBP-3 mRNA levels treated vs untreated, Q-PCR” value (U87MG cells [4]; day 6) was “not significantly different” and the “total number of colonies vs untreated” value (U87MG cells [5]; 500 μM dB-cAMP or 500 ng/ml IGFBP-4) was “not significantly (p<0.05) different”. For the same molecule, the “reduction of size of colonies (total covered area per field)” value (U87MG cells [5]; 500 μM dB-cAMP, 4 weeks) was roughly 75%, the “size of colonies (total covered area per field)” value (U87MG cells [5]; 500 μM dB-cAMP, 4 weeks, untreated 1.1±0.3) was 0.3±0.1 mm^2 and the PAI-1 protein expression (PAI-1 in U87MG cells) was “up-regulation”. It also gave a decrease in proliferation (U87MG cells [6]; day 3) of roughly 30%, a decrease in proliferation (U87MG cells [6]; day 5) of roughly 45% and a decrease in proliferation (U87MG cells [6]; day 6) of roughly 50%.

For “vascular endothelial growth factor-165 [VEGF]”, the “HBEC preparations in which CLT formation was induced” value ([1]; 7 HBEC isolations, VEGF 20 ng/ml alone or U87MG CM) was 3 out of 7.

B1: CBP-4: recombinant C-terminal IGFBP-4 protein fragment, aa 155 to 258 of the precursor, tagged (protein)
chain: MLLLLLLLGLRLQLSLGIASKVNGAPREDARPVPQGSCQSELHRALERLAASQSRTHEDLYIIPIPNCDRNGNFHPKQCHPALDGQRGKCWCVDRKTGVKLPGGLEPKGELDCHQLADSFREVDPWSHPQFEKTGHHHHHHHHGGQ
modifications: tagged; IGFBP4 C-terminal construct
notes: recombinant C-terminal IGFBP-4 protein fragment, aa 155 to 258 of the precursor, tagged
In the case of B1, the “effect on U87MG CM-induced CLT formation” value [1, 7] is reported as “completely blocking”, the “effect on IGF-1-induced CLT formation” value [1] is reported as “completely blocking” and the “effect on P1GF-induced CLT formation” value [1] is reported as “completely blocking”. The “effect on VEGF165-induced CLT formation” value [1] was “completely blocking”, the “effect on bFGF-induced CLT formation” value [1] was “completely blocking” and the “reduction of U87MG colony formation / tumor growth in soft agar” value (U87MG cells [5]; 4 weeks) was roughly 55%.

B2: insulin-like growth factor binding protein (IGFBP)-4 (protein)
chain: MLPLCLVAALLLAAGPGPSLGDEAIHCPPCSEEKLARCRPPVGCEELVREPGCGCCATCALGLGMPCGVYTPRCGSGLRCYPPRGVEKPLHTLMHGQGVCMELAEIEAIQESLQPSDKDEGDHPNNSFSPCSAHDRRCLQKHFAKIRDRSTSGGKMKVNGAPREDARPVPQGSCQSELHRALERLAASQSRTHEDLYIIPIPNCDRNGNFHPKQCHPALDGQRGKCWCVDRKTGVKLPGGLEPKGELDCHQLADSFREVDPWSHPQFEKTGHHHHHHHHGGQ
modifications: Streptag-II/His8 tag; IGFBP-4 construct
notes: full length recombinant IGFBP-4 with Streptag-II/(His)8 tag, aa 1 to 258
With B2 the “effect on U87MG CM-induced CLT formation” value [1, 7] was “reversed U87MG CM-stimulated CLT (FIG. 4A-C) to control levels”, the “effect on IGF-1-induced CLT formation” value [1] was “potently inhibited” and the “effect on P1GF-induced CLT formation” value [1] was “antagonized”. For the same molecule, the “effect on VEGF165-induced CLT formation” value [1] was “antagonized”, the “effect on bFGF-induced CLT formation” value [1] was “antagonized” and the “size of colonies (total area per field)” value (U87MG cells [5]; 500 ng/ml IGFBP-4, 4 weeks, untreated 1.5±0.6) was 0.4±0.3 mm^2. For the same molecule, the “reduction of U87MG colony formation / tumor growth in soft agar” value (U87MG cells [5]; 4 weeks) was roughly 80%, the “reduction of Hela colony formation / colony size” value (Hela cells) was roughly 45% and the “reduction of Hela colony formation / colony size” value (Hela cells; listed as IGFBP4) was roughly 50%. The “effect on U87MG proliferation rates” value (U87MG cells [6]; 500 ng/ml) was “did not affect U87MG proliferation rates”.

B3: NBP-4: recombinant N-terminal IGFBP-4 protein fragment, aa 1 to 156 of the precursor, tagged (protein)
chain: MLPLCLVAALLLAAGPGPSLGDEAIHCPPCSEEKLARCRPPVGCEELVREPGCGCCATCALGLGMPCGVYTPRCGSGLRCYPPRGVEKPLHTLMHGQGVCMELAEIEAIQESLQPSDKDEGDHPNNSFSPCSAHDRRCLQKHFAKIRDRSTSGGKMDPWSHPQFEKTGHHHHHHHHGGQ
modifications: tagged; IGFBP4 N-terminal fragment construct
notes: recombinant N-terminal IGFBP-4 protein fragment, aa 1 to 156 of the precursor, tagged
B3 was tested, and the “effect on IGF-1-induced CLT formation” value [1] was “abolish the angiogenic response”, the “effect on VEGF165-induced CLT formation” value [1] was “abolish the angiogenic response” and the “reduction of U87MG colony formation / tumor growth in soft agar” value (U87MG cells [5]; 4 weeks) was roughly 50%.

Reference: patent US20090048158A1, “Insulin-Like Growth Factor Binding Protein-4 Compounds and Methods for Inhibiting Angiogenesis and Tumor Growth in Mammalian Cells” (priority 2005, published 2009)
